Here are results for 13 molecules from PMC3245936 (Nucleic Acids Research, 2011).

In general, Kd refers to the free concentration of one partner at which half of the binding sites on the other are occupied at equilibrium, for simple one-to-one binding. Read a low Kd as tighter binding.

Data set [1] deals with T1, SpPot1 (Schizosaccharomyces pombe, UniProt O13988 1-555).
T1 sequence: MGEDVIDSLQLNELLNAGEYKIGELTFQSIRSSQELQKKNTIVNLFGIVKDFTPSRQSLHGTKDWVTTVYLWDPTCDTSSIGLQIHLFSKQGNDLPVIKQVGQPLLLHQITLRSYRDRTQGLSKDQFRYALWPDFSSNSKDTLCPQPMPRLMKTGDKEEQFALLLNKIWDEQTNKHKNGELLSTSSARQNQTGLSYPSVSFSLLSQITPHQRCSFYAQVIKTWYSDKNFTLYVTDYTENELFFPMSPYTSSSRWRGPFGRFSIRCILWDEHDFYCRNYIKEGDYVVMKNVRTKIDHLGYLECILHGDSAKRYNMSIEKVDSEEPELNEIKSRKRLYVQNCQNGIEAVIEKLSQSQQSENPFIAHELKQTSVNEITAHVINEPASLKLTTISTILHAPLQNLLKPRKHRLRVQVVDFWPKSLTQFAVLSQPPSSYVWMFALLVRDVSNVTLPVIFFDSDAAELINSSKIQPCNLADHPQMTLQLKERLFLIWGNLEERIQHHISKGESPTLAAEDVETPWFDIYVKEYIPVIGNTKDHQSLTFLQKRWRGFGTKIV
The data set is described as follows: filter binding.

Data set [2] has as its target T2, SpPot1;Tpz1-1-234 (Schizosaccharomyces …, UniProt O13988;O14246 1-555;1-234, |).
T2 sequence 1: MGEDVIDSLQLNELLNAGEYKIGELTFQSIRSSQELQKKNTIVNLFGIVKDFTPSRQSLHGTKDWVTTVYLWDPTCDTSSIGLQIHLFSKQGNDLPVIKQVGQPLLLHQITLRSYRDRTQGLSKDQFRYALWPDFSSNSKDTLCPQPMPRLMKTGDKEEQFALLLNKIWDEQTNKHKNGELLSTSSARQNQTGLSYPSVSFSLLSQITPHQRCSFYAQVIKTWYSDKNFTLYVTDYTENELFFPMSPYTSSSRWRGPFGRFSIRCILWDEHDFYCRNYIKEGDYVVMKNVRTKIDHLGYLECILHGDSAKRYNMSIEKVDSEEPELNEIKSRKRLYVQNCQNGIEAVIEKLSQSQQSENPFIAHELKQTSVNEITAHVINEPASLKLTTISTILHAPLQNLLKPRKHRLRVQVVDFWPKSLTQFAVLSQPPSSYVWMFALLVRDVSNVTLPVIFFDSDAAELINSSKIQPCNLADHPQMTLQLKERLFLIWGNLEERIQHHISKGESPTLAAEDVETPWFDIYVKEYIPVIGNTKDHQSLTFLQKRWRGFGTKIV
T2 sequence 2: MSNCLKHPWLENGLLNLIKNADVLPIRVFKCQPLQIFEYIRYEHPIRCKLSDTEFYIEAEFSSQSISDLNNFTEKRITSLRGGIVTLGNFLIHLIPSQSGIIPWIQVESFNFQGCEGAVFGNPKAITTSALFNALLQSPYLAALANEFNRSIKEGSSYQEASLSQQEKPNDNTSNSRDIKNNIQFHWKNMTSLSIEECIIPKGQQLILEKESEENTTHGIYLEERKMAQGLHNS
The data set is described as follows: filter binding.

Data set [3] concerns the target T1, SpPot1. The data set is described as follows: size-exclusion chromatography. A general note: SEC sorts molecules by how far they enter the pores of the column.
The target in data set [4] is T3, full-length SpPot1 (Schizosaccharomyces pombe Pot1) (S. pombe, UniProt O13988 1-555).
T3 sequence (looked up): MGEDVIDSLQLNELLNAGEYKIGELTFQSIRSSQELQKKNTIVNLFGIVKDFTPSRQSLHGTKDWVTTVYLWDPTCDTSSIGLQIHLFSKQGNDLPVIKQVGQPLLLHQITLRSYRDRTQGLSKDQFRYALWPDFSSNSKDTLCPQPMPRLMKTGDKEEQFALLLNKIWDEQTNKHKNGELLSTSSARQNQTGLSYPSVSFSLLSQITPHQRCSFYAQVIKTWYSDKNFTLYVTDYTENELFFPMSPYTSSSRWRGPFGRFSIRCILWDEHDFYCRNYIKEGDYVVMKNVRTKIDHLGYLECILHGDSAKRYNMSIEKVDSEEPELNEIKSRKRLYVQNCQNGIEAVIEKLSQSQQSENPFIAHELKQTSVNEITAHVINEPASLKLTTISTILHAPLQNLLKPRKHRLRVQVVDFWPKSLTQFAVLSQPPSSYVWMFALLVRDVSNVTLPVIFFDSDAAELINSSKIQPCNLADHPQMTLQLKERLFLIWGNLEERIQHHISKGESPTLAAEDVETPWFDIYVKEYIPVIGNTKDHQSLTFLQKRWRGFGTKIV
The data set can be described thus: native gel or EMSA.

As to GGTTACGGTTAC (mixed, ribonucleotides at 5 and 11) [r5r11], the equilibrium dissociation constant (Kd) in data set [1] was found to be 3.34 ± 0.4 nM; in data set [2], 0.31 ± 0.05 nM.

Turning to GGTTACAGGGGTTAC (mixed, ribonucleotides (rArGrG) at 7-9) [d12rArGrG], binding in data set [1] was put at a Kd of 4 ± 0.5 nM.

Take GGTTAC (ssDNA): the binding result in data set [3] is “binds”.

Take GGTTACGGTTAC (mixed, ribonucleotides at 1 and 7) [r1r7]: the Kd in data set [1] came out at 5.1 ± 0.01 nM; in data set [2] it was 0.31 ± 0.02 nM.

B1: Tpz1-1–234 (domain or fragment, S. pombe, UniProt O14246 1-234, looked up)
chain: MSNCLKHPWLENGLLNLIKNADVLPIRVFKCQPLQIFEYIRYEHPIRCKLSDTEFYIEAEFSSQSISDLNNFTEKRITSLRGGIVTLGNFLIHLIPSQSGIIPWIQVESFNFQGCEGAVFGNPKAITTSALFNALLQSPYLAALANEFNRSIKEGSSYQEASLSQQEKPNDNTSNSRDIKNNIQFHWKNMTSLSIEECIIPKGQQLILEKESEENTTHGIYLEERKMAQGLHNS
Consider B1, for which, in data set [4], the binding result was “binds”.

With GGUUACGGUUAC (ssRNA) [r12], the Kd was around 324 nM in data set [1] and around 1000 nM in data set [2].

As for GGTTACGGTTAC (ssDNA) [d12], the Kd turned out to be 5 ± 1.3 nM in data set [1] and 0.22 ± 0.03 nM in data set [2].

On to GGTTACGGTTAC (mixed, ribonucleotides at 6 and 12) [r6r12], for which the Kd in data set [1] is 3.2 ± 0.6 nM; in data set [2], 0.3 ± 0.05 nM.

In data set [1], GGTTACAGGTTAC (ssDNA) [d12dA] had a Kd of 4.3 ± 0.6 nM.

Regarding GGUUACGGUUAC (mixed, ribonucleotides (rU) at 3, 4, 9 and 10) [r3r4r9r10], the Kd in data set [1] was around 238 nM.

GGTTACAGGTTAC (mixed, ribonucleotide (rA) at 7) [d12rA] had a Kd in data set [1] of 3.4 ± 0.3 nM.

For the molecule GGTTACGGTTAC (mixed, ribonucleotides at 2 and 8) [r2r8], the Kd in data set [1] stood at 3.2 ± 0.5 nM; in data set [2], 0.19 ± 0.03 nM.

Regarding GGTTACAGGGGTTAC (ssDNA) [d12dAdGdG], binding in data set [1] was characterised by a dissociation constant (Kd) of 4.9 ± 0.7 nM.
